Experiments:
AncSZ = experiment: phosphorylation enrichment, bacterial display (enrichment ratio); higher = better substrate or ligand; peptides without Tyr show the background
EPHB1 = EPHB1 (UniProt P54762); experiment: as above
EPHB2 = EPHB2 (UniProt P29323); experiment: as above
FGFR1 = FGFR1 (UniProt P11362); experiment: as above
FGFR3 = FGFR3 (UniProt P22607); experiment: as above
Fer (mouse) = experiment: as above
Fes = Fes (UniProt P07332); experiment: as above
Fyn = Fyn (UniProt P06241); experiment: as above
Hck = Hck (UniProt P08631); experiment: as above
Jak2 = Jak2 (UniProt O60674); experiment: as above
MERTK = MERTK (UniProt Q12866); experiment: as above
c-Abl (mouse) = experiment: as above
c-Src = experiment: as above
Grb2 SH2 = Grb2 SH2 (UniProt P62993); experiment: SH2 binding enrichment of the phosphorylated peptide, bacterial display (enrichment ratio); higher = better substrate or ligand; peptides without Tyr show the background
SHP2-C SH2 = experiment: as above
c-Src SH2 = experiment: as above
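Wherever SH2 binding enrichment of the phosphorylated peptide, bacterial display is given: peptide library displayed on the E. coli surface as eCPX fusions, selected cells deep-sequenced, score is each peptide's frequency after selection divided by its frequency in the input.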
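Wherever phosphorylation enrichment, bacterial display is given: 11-residue human phosphosite peptides and single-mutation variants displayed on the E. coli surface, counted by deep sequencing, each peptide's frequency after selection divided by its frequency in the unselected input library; frequency after pTyr selection over input frequency; kinase dosed for 20-30% of maximal phosphorylation in three min.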

Chain of Fes (P07332 whole entry, looked up): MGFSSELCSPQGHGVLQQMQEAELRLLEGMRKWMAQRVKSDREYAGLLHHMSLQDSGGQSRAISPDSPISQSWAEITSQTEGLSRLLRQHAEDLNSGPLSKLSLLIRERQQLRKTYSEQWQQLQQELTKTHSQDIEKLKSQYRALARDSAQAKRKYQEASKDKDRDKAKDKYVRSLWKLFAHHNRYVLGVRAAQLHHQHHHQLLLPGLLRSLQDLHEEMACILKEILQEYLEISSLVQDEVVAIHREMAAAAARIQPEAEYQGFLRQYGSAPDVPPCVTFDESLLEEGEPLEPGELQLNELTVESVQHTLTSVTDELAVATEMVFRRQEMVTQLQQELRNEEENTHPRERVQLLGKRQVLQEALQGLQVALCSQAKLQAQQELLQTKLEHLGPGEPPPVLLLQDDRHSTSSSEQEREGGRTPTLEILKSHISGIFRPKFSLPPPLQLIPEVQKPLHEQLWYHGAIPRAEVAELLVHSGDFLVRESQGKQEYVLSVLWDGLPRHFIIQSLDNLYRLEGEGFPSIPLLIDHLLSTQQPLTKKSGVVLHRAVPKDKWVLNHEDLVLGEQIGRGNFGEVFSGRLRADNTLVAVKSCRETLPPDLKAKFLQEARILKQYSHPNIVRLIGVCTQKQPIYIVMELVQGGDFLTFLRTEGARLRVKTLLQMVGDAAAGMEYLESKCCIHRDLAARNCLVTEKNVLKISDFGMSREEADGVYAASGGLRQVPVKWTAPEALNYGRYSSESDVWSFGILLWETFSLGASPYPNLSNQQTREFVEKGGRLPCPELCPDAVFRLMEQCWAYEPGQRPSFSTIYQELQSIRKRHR
Chain of EPHB2 (P29323 whole entry, looked up): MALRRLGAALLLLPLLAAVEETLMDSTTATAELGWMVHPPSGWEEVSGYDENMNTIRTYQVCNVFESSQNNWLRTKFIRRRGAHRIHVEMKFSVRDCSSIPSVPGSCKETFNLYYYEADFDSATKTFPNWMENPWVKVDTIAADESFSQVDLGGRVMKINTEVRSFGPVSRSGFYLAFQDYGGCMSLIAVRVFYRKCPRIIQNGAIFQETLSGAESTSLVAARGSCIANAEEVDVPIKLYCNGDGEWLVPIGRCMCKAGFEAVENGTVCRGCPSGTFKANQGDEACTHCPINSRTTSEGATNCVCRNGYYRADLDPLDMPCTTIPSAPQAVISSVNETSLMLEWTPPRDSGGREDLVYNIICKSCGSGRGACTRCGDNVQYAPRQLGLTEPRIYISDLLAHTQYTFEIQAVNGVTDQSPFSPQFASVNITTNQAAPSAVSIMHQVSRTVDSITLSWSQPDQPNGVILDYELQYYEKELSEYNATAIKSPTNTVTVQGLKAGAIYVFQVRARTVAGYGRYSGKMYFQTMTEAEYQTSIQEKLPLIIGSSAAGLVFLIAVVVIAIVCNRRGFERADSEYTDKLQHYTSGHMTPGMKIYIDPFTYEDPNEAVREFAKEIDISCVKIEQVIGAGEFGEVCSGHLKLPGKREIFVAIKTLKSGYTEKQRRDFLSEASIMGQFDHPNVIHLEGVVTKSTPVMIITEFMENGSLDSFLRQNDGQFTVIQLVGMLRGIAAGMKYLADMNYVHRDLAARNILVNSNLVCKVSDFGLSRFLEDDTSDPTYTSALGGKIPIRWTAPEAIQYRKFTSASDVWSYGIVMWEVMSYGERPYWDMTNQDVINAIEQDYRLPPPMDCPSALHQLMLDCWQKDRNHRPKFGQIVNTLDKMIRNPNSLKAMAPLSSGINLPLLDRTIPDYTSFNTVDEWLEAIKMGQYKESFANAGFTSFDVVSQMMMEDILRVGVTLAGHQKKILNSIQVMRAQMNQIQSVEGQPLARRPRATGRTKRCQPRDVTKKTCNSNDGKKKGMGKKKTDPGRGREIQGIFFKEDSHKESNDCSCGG
Chain of FGFR3 (P22607 whole entry, looked up): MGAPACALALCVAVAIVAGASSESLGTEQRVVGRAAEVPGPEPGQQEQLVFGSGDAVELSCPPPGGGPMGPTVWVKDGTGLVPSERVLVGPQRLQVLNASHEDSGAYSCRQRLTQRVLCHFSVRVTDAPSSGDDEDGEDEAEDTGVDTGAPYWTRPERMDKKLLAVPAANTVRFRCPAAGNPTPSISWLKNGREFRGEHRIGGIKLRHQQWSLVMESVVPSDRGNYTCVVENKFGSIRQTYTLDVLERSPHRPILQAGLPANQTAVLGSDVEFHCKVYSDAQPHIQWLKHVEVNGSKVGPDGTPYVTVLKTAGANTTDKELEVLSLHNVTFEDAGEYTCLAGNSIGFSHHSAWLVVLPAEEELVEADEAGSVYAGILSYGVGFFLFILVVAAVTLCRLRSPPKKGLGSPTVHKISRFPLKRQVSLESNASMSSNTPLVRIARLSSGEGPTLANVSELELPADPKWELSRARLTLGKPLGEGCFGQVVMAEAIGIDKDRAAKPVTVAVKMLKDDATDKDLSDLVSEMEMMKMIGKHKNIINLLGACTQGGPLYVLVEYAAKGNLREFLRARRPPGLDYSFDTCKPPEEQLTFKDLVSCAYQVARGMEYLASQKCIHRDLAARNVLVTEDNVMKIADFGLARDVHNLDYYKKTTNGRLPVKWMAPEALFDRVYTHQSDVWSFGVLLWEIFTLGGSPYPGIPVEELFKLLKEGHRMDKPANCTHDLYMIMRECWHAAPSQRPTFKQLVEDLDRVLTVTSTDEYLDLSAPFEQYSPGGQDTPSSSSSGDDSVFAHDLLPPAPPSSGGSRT
Chain of Fyn (P06241 whole entry, looked up): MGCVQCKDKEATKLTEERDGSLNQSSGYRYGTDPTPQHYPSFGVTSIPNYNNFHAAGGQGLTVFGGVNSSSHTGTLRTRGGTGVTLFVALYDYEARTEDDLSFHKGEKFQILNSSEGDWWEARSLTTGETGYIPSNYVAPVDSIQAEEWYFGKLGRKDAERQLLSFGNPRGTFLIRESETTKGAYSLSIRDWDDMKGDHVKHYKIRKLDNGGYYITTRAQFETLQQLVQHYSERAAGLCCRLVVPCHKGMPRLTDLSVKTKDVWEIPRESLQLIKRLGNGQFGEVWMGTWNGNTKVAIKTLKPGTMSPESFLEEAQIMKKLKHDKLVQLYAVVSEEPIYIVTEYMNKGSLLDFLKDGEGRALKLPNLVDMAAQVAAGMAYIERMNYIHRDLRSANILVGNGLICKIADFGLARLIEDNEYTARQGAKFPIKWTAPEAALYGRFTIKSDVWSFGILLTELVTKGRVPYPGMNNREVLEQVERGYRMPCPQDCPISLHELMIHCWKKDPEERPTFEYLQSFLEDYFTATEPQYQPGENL
Chain of MERTK (Q12866 whole entry, looked up): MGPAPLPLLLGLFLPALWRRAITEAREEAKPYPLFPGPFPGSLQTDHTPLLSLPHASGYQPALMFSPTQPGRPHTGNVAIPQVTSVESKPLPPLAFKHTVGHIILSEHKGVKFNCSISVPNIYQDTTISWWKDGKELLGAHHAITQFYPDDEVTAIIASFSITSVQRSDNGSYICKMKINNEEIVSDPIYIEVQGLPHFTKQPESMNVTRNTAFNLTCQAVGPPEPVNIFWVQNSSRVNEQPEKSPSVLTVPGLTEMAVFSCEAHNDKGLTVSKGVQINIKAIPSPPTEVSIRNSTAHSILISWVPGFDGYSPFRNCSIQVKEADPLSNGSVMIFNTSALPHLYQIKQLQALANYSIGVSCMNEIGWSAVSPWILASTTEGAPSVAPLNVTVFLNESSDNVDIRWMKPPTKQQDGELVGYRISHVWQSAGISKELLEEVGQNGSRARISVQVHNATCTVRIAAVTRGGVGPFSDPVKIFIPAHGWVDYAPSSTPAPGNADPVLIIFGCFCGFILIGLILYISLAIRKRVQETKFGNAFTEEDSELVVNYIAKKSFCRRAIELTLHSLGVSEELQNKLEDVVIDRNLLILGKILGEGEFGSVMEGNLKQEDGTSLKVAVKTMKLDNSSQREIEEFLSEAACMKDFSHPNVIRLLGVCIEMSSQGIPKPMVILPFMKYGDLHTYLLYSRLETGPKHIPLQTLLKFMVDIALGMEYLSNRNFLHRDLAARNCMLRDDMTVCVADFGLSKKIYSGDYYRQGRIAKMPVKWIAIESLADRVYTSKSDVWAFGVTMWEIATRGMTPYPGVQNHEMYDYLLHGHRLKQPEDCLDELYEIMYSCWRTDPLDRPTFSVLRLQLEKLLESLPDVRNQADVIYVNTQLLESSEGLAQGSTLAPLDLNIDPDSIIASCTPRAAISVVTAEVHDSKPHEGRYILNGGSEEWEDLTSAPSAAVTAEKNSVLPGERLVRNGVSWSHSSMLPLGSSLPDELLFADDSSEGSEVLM
Chain of Hck (P08631 whole entry, looked up): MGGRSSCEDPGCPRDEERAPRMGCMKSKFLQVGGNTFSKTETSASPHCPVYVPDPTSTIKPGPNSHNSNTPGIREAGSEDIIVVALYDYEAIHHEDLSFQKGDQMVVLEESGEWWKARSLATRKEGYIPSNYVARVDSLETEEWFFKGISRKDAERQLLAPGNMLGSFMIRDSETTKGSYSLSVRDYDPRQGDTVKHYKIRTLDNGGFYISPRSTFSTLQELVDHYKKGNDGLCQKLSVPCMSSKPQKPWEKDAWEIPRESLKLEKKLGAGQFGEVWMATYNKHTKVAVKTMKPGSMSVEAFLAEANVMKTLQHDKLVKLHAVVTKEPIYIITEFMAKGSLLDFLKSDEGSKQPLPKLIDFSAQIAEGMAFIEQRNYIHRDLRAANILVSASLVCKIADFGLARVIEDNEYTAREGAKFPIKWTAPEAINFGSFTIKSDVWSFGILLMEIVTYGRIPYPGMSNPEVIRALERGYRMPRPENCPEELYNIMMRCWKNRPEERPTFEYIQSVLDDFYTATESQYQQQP

SH2 binding enrichment (Grb2 SH2)	SH2 binding enrichment (SHP2-C SH2)	SH2 binding enrichment (c-Src SH2)	Sequence	phosphorylation enrichment (AncSZ)	phosphorylation enrichment (EPHB1)	phosphorylation enrichment (EPHB2)	phosphorylation enrichment (FGFR1)	phosphorylation enrichment (FGFR3)	phosphorylation enrichment (Fer (mouse))	phosphorylation enrichment (Fes)	phosphorylation enrichment (Fyn)	phosphorylation enrichment (Hck)	phosphorylation enrichment (Jak2)	phosphorylation enrichment (MERTK)	phosphorylation enrichment (c-Abl (mouse))	phosphorylation enrichment (c-Src)
1.96	2.08	1.43	KFVVVYFREID [IL17RB_Y447_YF]	1.2	0.508	0.523	0.49	0.691	0.446	1.27	0.436	0.538	1.17	0.362	0.724	0.408
0.931	0.58	0.533	KGELRYMHSPV [ABCD1_Y281_R285P]	0.481	0.393	0.367	0.364	0.458	0.315	0.674	0.328	0.345	0.619	0.406	0.527	0.365
1.47	1.64	1.47	KGRAGYTTVAV [RET_Y752]	0.46	0.286	0.265	0.309	0.412	0.325	0.519	0.319	0.337	0.437	0.415	0.454	0.347
0.963	0.652	3.92	KGYRGYSYDDI [TMEM230_Y110]	0.756	0.407	0.424	0.485	0.509	0.393	0.774	0.425	0.395	0.607	0.417	0.547	0.434
1.02	0.812	0.504	KIVQDYLEKFY [MMP8_Y36_T32I]	0.885	0.557	0.735	0.521	0.595	0.428	0.975	0.452	0.47	0.719	0.483	0.579	0.449
0.685	0.916	0.515	KKKKQYKGKFL [CASK_Y708_D710G_YF]	0.617	0.447	0.549	0.485	0.579	0.439	0.526	0.532	0.523	0.535	0.533	0.547	0.638
1.15	0.923	0.746	KLRMESLSLMH [NCKIPSD_Y660_Y660S]	0.658	0.423	0.483	0.453	0.476	0.388	0.782	0.45	0.415	0.644	0.436	0.508	0.457
1.29	0.826	1.11	KMMGRYEMYAR [UPB1_Y362_T359M]	0.711	0.374	0.551	0.5	0.529	0.302	0.711	0.333	0.51	0.966	0.543	0.367	0.414

Continued, sequence first:

Sequence	SH2 binding enrichment (Grb2 SH2)	SH2 binding enrichment (SHP2-C SH2)	SH2 binding enrichment (c-Src SH2)	phosphorylation enrichment (AncSZ)	phosphorylation enrichment (EPHB1)	phosphorylation enrichment (EPHB2)	phosphorylation enrichment (FGFR1)	phosphorylation enrichment (FGFR3)	phosphorylation enrichment (Fer (mouse))	phosphorylation enrichment (Fes)	phosphorylation enrichment (Fyn)	phosphorylation enrichment (Hck)	phosphorylation enrichment (Jak2)	phosphorylation enrichment (MERTK)	phosphorylation enrichment (c-Abl (mouse))	phosphorylation enrichment (c-Src)
KFWREYILSLE [GPC3_Y299_YF]	1.27	1.31	0.932	0.999	0.552	0.666	0.478	0.72	0.422	1.2	0.462	0.452	0.997	0.431	0.912	0.588
KGELCYMHSRV [ABCD1_Y281_R280C]	1.31	0.883	0.632	0.813	0.597	0.581	0.479	0.682	0.449	0.757	0.505	0.485	0.568	0.563	0.43	0.402
KGIQLYDTPYE [SHB_Y297]	1.15	1.1	4.71	1.5	11.3	15.6	0.564	0.695	3.26	1.04	0.891	1.84	1.13	5.25	1.13	1.24
KHCEDYVCSFN [DSC1_Y846_YF]	1.06	0.87	0.809	1.15	0.564	0.522	0.572	0.681	0.525	1.08	0.473	0.446	1.13	0.424	0.719	0.829
KKYPDYIQSAM [SGMS2_Y59_I62S]	0.883	0.746	0.394	0.839	0.543	0.396	0.484	0.487	0.373	0.772	0.443	0.413	0.716	0.392	0.595	0.428
KLMTEYKKRKQ [ARFGEF3_Y2029]	1.27	0.878	1.08	0.478	0.336	0.34	0.331	0.543	0.411	0.69	0.418	0.459	0.653	0.52	0.629	0.442
KNEKVYTRHGV [FLOT1_Y56_S52N]	0.998	0.749	0.585	0.514	0.243	0.33	0.352	0.356	0.316	0.487	0.355	0.344	0.392	0.375	0.435	0.357
KNRDVSSSDYF [USP24_Y2134_Y2134S]	0.921	0.7	0.523	0.921	0.476	0.447	0.523	0.521	0.363	0.653	0.476	0.402	0.578	0.442	0.61	0.543
KPGVNYYFQVS	1.01	2	1.3	1.22	0.699	0.602	2.49	2.05	0.522	1.35	0.573	0.526	1.44	0.873	0.895	0.5

From the supplement of paper PMC10065799, “High-throughput profiling of sequence recognition by tyrosine kinases and SH2 domains using bacterial peptide display” (eLife, 2023)
